Consider one molecule from patent publication CN113845595A (FUZHOU MAIXIN BIOTECHNOLOGY DEV CO LTD, dated 2021).

The assay addresses T1, GH蛋白 (垂体瘤组织中的内源GH) (human, UniProt P01241 27-217).
T1 construct: Endogenous antigen detected by immunohistochemistry in pituitary tumour samples; also called 人GH蛋白
As to the kind of experiment: immunohistochemistry on 9 pituitary tumour samples.

T1 sequence (P01241 27-217 limits assumed): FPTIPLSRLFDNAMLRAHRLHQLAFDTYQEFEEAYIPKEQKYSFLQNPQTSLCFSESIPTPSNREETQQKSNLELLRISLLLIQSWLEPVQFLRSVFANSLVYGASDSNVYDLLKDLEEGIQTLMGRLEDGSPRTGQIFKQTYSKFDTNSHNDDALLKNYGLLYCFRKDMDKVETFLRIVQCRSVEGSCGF

B1: 抗GH蛋白单克隆抗体(9D5D2A9) (antibody, V domains shown)
VH: QVQLKESGPGLVAPSQSLSITCTVSGFSLTNYGIHWVRQPPGKGLEWLGLIWSGGSTKYNSALMSRLSISRDNSKSQVFLKMNSLQSDDTAMYYCVRDELYAYWGQGTLVTVSA
VL: DIVMTQSHKFMSTSVGDRVSITCKASQDVGPTVAWYQQKPGQSPKLLIYWASTRHTGVPDRFTGSGYGTDFTLTISNVQSEDLADYFCQQYSSYPFTFGSGTKLEIK
notes: also called GH单克隆抗体; CGMCC NO.22315
As for B1, the binding result is listed as “binds”.
